Data published in patent publication US20180072804A1 (Hoffmann-La Roche, published 2018).
Several values for one entry are separate records, joined by “and”; a condition that tells them apart may be missing. Identical values can stand only once. Like-named read-outs stand apart in the source and are kept apart here.

Assays:
[1] = molecular target: T1, human TIM3, full length, on cells (human, UniProt Q8TDQ0 22-301); experiment: FACS competition, RPMI-8226 cells; competitor Tim3_0038
[2] = molecular target: cynomolgus TIM-3 on isolated cyno CD14+ monocytes (cynomolgus monkey); experiment: FACS, cyno CD14+ monocytes, cyno1 (16719M)
[3] = molecular target: cynomolgus TIM-3 on isolated cyno CD14+ monocytes (cynomolgus monkey); experiment: FACS, cyno CD14+ monocytes, cyno3 (30085F)
[4] = molecular target: T1, human TIM3, full length, on cells; experiment: FACS competition, RPMI-8226 cells; competitor Tim3_0026
[5] = molecular target: cynomolgus TIM-3 on isolated cyno CD14+ monocytes (cynomolgus monkey); experiment: FACS, cyno CD14+ monocytes, cyno2 (17435M)
[6] = molecular target: T1, human TIM3, full length, on cells; experiment: FACS competition, RPMI-8226 cells; competitor Tim3_0028
[7] = molecular target: T1, human TIM3, full length, on cells; experiment: FACS, human CD14+ monocytes, donor3, 10 µg/ml
[8] = molecular target: T1, human TIM3, full length, on cells; experiment: FACS, human CD14+ monocytes, donor1, 10 µg/ml
[9] = molecular target: T1, human TIM3, full length, on cells; experiment: FACS, human CD14+ monocytes, donor2, 10 µg/ml
[10] = molecular target: T1, human TIM3, full length, on cells; experiment: FACS competition, RPMI-8226 cells; competitor Tim3_0022
[11] = molecular target: T1, human TIM3, full length, on cells; experiment: FACS competition, RPMI-8226 cells; competitor Tim3_0018
[12] = molecular target: T1, human TIM3, full length, on cells; experiment: FACS competition, RPMI-8226 cells; competitor Tim3_0016
[13] = molecular target: T1, human TIM3, full length, on cells; experiment: FACS, human CD14+ monocytes, donor3, isotype control
[14] = molecular target: T1, human TIM3, full length, on cells; experiment: FACS, human CD14+ monocytes, donor2, isotype control
[15] = molecular target: cynomolgus TIM-3 on isolated cyno CD14+ monocytes (cynomolgus monkey); experiment: FACS, cyno CD14+ monocytes, cyno1 (16719M), isotype control
[16] = molecular target: cynomolgus TIM-3 on isolated cyno CD14+ monocytes (cynomolgus monkey); experiment: FACS, cyno CD14+ monocytes, cyno2 (17435M), isotype control
[17] = molecular target: cynomolgus TIM-3 on isolated cyno CD14+ monocytes (cynomolgus monkey); experiment: FACS, cyno CD14+ monocytes, cyno3 (30085F), isotype control
[18] = molecular target: T1, human TIM3, full length, on cells; experiment: FACS, human CD14+ monocytes, donor1, isotype control
[19] = molecular target: T1, human TIM3, full length, on cells; experiment: cell-based or functional assay
[20] = molecular target: monomeric cyno Tim3-ECD (cynomolgus); experiment: SPR, Ab captured on anti-mouse IgG, 25 C
[21] = molecular target: T2, Tim3-ECD-His-Biotin (human, UniProt Q8TDQ0 22-202, biotinylated with BirA Ligase); experiment: ELISA on human Tim3
T2 construct: Coated on streptavidin plates; also called human Tim3 (ELISA); Biochem Human

[22] = molecular target: T1, human TIM3, full length, on cells; experiment: cell ELISA, CHO-K1 with full-length human Tim3
[23] = molecular target: monomeric cyno Tim3-ECD (cynomolgus); experiment: ELISA on cynomolgus Tim3
[24] = molecular target: T3, monomeric human Tim3-ECD (human, UniProt Q8TDQ0 22-202); experiment: SPR, Ab captured on anti-mouse IgG, 25 C
T3 construct: also called huTim3; hu Tim3-ECD

[25] = molecular target: T4, Fc-tagged human Tim3-ECD dimer (human, UniProt Q8TDQ0 22-202); experiment: SPR, Ab captured on anti-mouse IgG, 25 C
T4 construct: also called huTim3Fc; huFc fused dimeric human Tim3-ECD

[26] = molecular target: T1, human TIM3, full length, on cells; experiment: cell-based or functional assay; remark: listed apart in the source
[27] = molecular target: T1, human TIM3, full length, on cells; experiment: cell ELISA, CHO-K1 with full-length human Tim3
[28] = molecular target: T4, Fc-tagged human Tim3-ECD dimer; experiment: SPR, Ab captured on anti-mouse IgG, dimeric Tim3-ECD-Fc
Procedure: Therefore, an anti-mouse IgG was immobilized by amine coupling to the surface of a (BIAcore) CMS sensor chip. […] The sensor chip surface was regenerated after each analysis cycle. The equilibrium constant KD was finally gained by fitting the data to a 1:1 Langmuir interaction model.
The samples were injected for 30 seconds with a concentration of 200 μg/ml and bound to the spots 1 and 5 of each flow cell, allowing the measurement of eight samples in parallel. […] The flow rate was set to 30 μl/min for the whole run.
Finally the double referenced data was fitted to a 1:1 Langmuir interaction model with the BIAcore B4000 Evaluation Software.

[29] = molecular target: T5, cynomolgus TIM-3 on isolated cyno CD14+ monocytes (cynomolgus monkey, UniProt A0A2K5U3G7 22-294); experiment: FACS, cyno CD14+ monocytes, cyno1 (16719M)
T5 construct: whole, on cells; also called cyno monocytes expressing TIM-3
T5 sequence: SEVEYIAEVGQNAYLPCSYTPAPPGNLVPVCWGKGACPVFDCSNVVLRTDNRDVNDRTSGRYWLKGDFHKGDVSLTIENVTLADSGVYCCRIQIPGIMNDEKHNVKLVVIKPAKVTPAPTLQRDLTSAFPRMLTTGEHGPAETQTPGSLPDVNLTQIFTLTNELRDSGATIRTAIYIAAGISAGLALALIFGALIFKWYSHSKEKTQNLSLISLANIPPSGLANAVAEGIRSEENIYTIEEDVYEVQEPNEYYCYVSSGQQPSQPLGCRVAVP
Source text: (§1) CD14+ Monocytes were isolated from cynomolgus monkey anticoagulated peripheral blood (Covance) by density gradient centrifugation using Ficoll-Paque (GE Healthcare) (see General Protocols in the User Manuals or visit www.miltenyibiotec.com/protocols) and subsequent positive selection via NHP CD14 MicroBeads. First the CD14+ cells are magnetically labeled with CD14 MicroBeads. Then the cell suspension is loaded onto a MACS® Column which is placed in the magnetic field of a MACS Separator. The magnetically labeled CD14+ cells are retained in the column. The unlabeled cells run through, this cell fraction is depleted of CD14+ cells. After removal of the column from the magnetic field, the magnetically retained CD14+ cells can be eluted as the positively selected cell fraction. After centrifugation at 200×g for 10 min at room temperature the monocytes were harvested and used directly in binding assay or resuspended in freezing medium (10% DMSO, 90% FCS) at 1.0E+07 cells/ml and stored in liquid nitrogen.
(§2) After washing and centrifugation MFI signals of stained cells were analyzed by BD Biosciences FACSCanto flow cytometer.

[30] = molecular target: T5, cynomolgus TIM-3 on isolated cyno CD14+ …; experiment: FACS, cyno CD14+ monocytes, cyno3 (30085F)
Source text: as §1, §2

[31] = molecular target: T2, Tim3-ECD-His-Biotin; experiment: ELISA on Tim3-ECD-His-Biotin
Procedure: After washing (3×90 μl/well with PBST-buffer) 25 μl/well sheep-anti-mouse-POD (GE NA9310V) was added in 1:9000 dilution and incubated at RT for 1 h while shaking at 400 rpm rotation. After washing (4×90 μl/well with PBST-buffer) 25 TMB substrate (Calbiochem, #CL07) was added and incubated until OD 1.5-2.5. Then the reaction was stopped by addition of 25 μl/well 1N HCL-solution.

[32] = molecular target: T3, monomeric human Tim3-ECD; experiment: SPR, Ab captured on anti-mouse IgG, monomeric Tim3-ECD; monomer Tim3, not the Fc-tagged dimer
[33] = molecular target: T5, cynomolgus TIM-3 on isolated cyno CD14+ …; experiment: FACS, cyno CD14+ monocytes, cyno2 (17435M)
Source text: as §1, §2

[34] = molecular target: T1, human TIM3, full length, on cells; experiment: cell ELISA, CHO-K1 with full-length human Tim3; remark: listed apart in the source
Procedure: Then the reaction was stopped by addition of 25 μl/well 1N HCL-solution.

[35] = molecular target: T1, human TIM3, full length, on cells; experiment: cell-based or functional assay; remark: listed apart in the source

## anti-human TIM-3 rat monoclonal antibody clone 344823 (R&D Systems)
[1]
  Max % Inhibition of Binding: 99%
[2]
  Specific Binding [MFI]: 158 MFI
[3]
  Specific Binding [MFI]: 143 MFI
[4]
  Max % Inhibition of Binding: 3%
[5]
  Specific Binding [MFI]: 121 MFI
[6]
  Max % Inhibition of Binding: 107%
[7]
  Specific Binding [MFI]: 814 MFI
[8]
  Specific Binding [MFI]: 1010 MFI
[9]
  Specific Binding [MFI]: 917 MFI
[10]
  Max % Inhibition of Binding: 102%
[11]
  Max % Inhibition of Binding: 0%
[12]
  Max % Inhibition of Binding: 0%

## M-IgG1 isotype control (antibody)
[13]
  Specific Binding [MFI]: 213 MFI
[14]
  Specific Binding [MFI]: 55 MFI
[15]
  Specific Binding [MFI]: 72 MFI
[16]
  Specific Binding [MFI]: 82 MFI
[17]
  Specific Binding [MFI]: 83 MFI
[18]
  Specific Binding [MFI]: 144 MFI

## anti-human TIM-3 mouse monoclonal antibody clone F38-2E2
[1]
  Max % Inhibition of Binding: 94%
[2]
  Specific Binding [MFI]: 135 MFI
[3]
  Specific Binding [MFI]: 124 MFI
[19]
  IFNgamma release in MLR, % of rec hu IL-2 control, 1 µg/ml: 7%
  IFNgamma release in MLR, % of rec hu IL-2 control, 10 µg/ml: 26%
  IFNgamma release in MLR, % of rec hu IL-2 control, 40 µg/ml: 36%
[20]
  Kd: 168 nM
[4]
  Max % Inhibition of Binding: 2%
[5]
  Specific Binding [MFI]: 136 MFI
[21]
  EC50: 0.0732 µg/mL
  Inflexion point: 88.3 ng/mL
[22]
  EC50: 0.15 µg/mL
  Inflexion point: 224 ng/mL
[6]
  Max % Inhibition of Binding: 75%
[7]
  Specific Binding [MFI]: 460 MFI
[8]
  Specific Binding [MFI]: 516 MFI
[23]
  EC50: 0.423 µg/mL
  Inflexion point: 210000 ng/mL
[9]
  Specific Binding [MFI]: 493 MFI
[10]
  Max % Inhibition of Binding: 77%
[11]
  Max % Inhibition of Binding: 6%
[12]
  Max % Inhibition of Binding: -7%
[24]
  Kd: 13.6 nM
[25]
  Kd: 7.5 nM

## Rat-IgG2A isotype control (antibody)
[13]
  Specific Binding [MFI]: 70 MFI
[14]
  Specific Binding [MFI]: 68 MFI
[15]
  Specific Binding [MFI]: 84 MFI
[16]
  Specific Binding [MFI]: 86 MFI
[17]
  Specific Binding [MFI]: 91 MFI
[18]
  Specific Binding [MFI]: 71 MFI

B1: Fab-PE24 construct of anti-TIM3 antibody Tim3_0033 (Fab, V domains shown)
VH: QGQMHQSGAELVKPGSSVKLSCKTSGFTFSSSFISWLKQKPGQSLEWIAWIYAATGSTSYNQKFTNKAQLTVDTSSSAAYMQFSSLTTEDSAIYYCARHAGYPHYYAMDYWGQGTSVTVSS
VL: DIQMTQSPASLSASVGETVTITCRASENIFSNLAWYQQKQGKSPQLLVYSATNLGDGVPSRFSGSGSGTQFSLKINSLQPEDFGNYYCQHFYKIPFTFGTGTKLEIK
[26]
  Max. killing, Pfeiffer cells: 99.8%
  Max. killing, RPMI-8226 cells: 99.7%

B2: anti-TIM3 antibody Tim3_0016 variant (Tim3_0018) (antibody, V domains shown)
VH: QVTLKESGPGILQPSQTLSLTCSFSGFSLSTSGMSVGWIRQPSGKGLEWLAHIWLNDDVFFNPALKRRLTISKDTSNNQVFLQIASVVTADTATYYCVRANGYLYALDYWGQGISVTVSS
VL: QIVLTQSPAIMSASPGQKVTITCSASSSVNYTQWYQQKLGSSPKLWIYDAFKLAPGVPARFSGSGTGTSYSLTISSMEAEDAASYFCHQWSSYPWTFGGGTKLEIK
notes: Mouse monoclonal from hybridoma; also called TIM3-0016 variant (0018); Tim3_0016 variant 0018-A488
[27]
  EC50: 0.0264 µg/mL
  Inflexion point: 29.4 ng/mL
[28]
  Kd: 1.1 nM
[29]
  Specific Binding [MFI]: 301 MFI
[30]
  Specific Binding [MFI]: 417 MFI
[31]
  EC50: 0.56 nM and 0.094 µg/mL
[20]
  Kd: 41.9 nM
[32]
  Kd: 3.4 nM
[21]
  EC50: 0.0151 µg/mL
  Inflexion point: 15.3 ng/mL
[7]
  Specific Binding [MFI]: 1940 MFI
[33]
  Specific Binding [MFI]: 480 MFI
[8]
  Specific Binding [MFI]: 2330 MFI
[34]
  EC50: 0.52 nM and 0.087 µg/mL
[23]
  EC50: 0.0146 µg/mL
  Inflexion point: 14.6 ng/mL
[9]
  Specific Binding [MFI]: 1820 MFI
[35]
  IFNgamma release in MLR, % of rec hu IL-2 control, 1 µg/ml: 12%
  IFNgamma release in MLR, % of rec hu IL-2 control, 10 µg/ml: 30%
  IFNgamma release in MLR, % of rec hu IL-2 control, 40 µg/ml: 36%
[24]
  Kd: 3.4 nM
[25]
  Kd: 1.11 nM

B3: Fab-PE24 construct of anti-TIM3 antibody Tim3_0021 (Fab, V domains shown)
VH: QVQLQQSGPQLVRPGASVQISCKASGYSFTSYLLHWLKQRPGQGLEWIGMIDPSDSETRLNQKFKDKATLTVDKSSSTAYMQLSSPTSEDSAVYYCARDGYYAWYYFDCWGQGTTLTVSS
VL: DIVLTQSPATLSVTPGDRVSLSCRASQSIGNNLHWYQQKSHESPRLLIKYASHSISGIPSKFSGTGSGTDFTLSFNSVETEDFGMYFCQQSNSWPLTFGAGTKLELK
[26]
  Max. killing, Pfeiffer cells: 98.4%
